Experimental data taken from PMC4895972, “Calcium binding protects E-cadherin from cleavage by Helicobacter pylori HtrA” (Gut Pathogens, 2016).

Biological target: the molecule itself
Assay: non-reducing SDS-PAGE; 3 µg HpHtrA preincubated in 50 mM HEPES pH 7.5 without or with increasing concentrations of CaCl2; sample buffer without β-mercaptoethanol; Coomassie-stained

B1: recombinant HtrA (high temperature requirement A) from H. pylori strain 26695, wildtype (enzyme)
chain: GNIQIQSMPKVKERVSVPSKDDTIYSYHDSIKDSIKAVVNISTEKKIKNNFIGGGVFNDPFFQQFFGDLGGMIPKERMERALGSGVIISKDGYIVTNNHVIDGADKIKVTIPGSNKEYSATLVGTDSESDLAVIRITKDNLPTIKFSDSNDISVGDLVFAIGNPFGVGESVTQGIVSALNKSGIGINSYENFIQTDASINPGNSGGALIDSRGGLVGINTAIISKTGGNHGIGFAIPSNMVKDTVTQLIKTGKIERGYLGVGLQDLSGDLQNSYDNKEGAVVISVEKDSPAKKAGILVWDLITEVNGKKVKNTNELRNLIGSMLPNQRVTLKVIRDKKERAFTLTLAERKNPNKKETISAQNGAQGQLNGLQVEDLTQETKRSMRLSDDVQGVLVSQVNENSPAEQAGFRQGNIITKIEEVEVKSVADFNHALEKYKGKPKRFLVLDLNQGYRIILVK
notes: also called HpHtrA; H. pylori HtrA; source: E. coli BL21, purified (GSH-Sepharose, GST-tag removed with PreScission protease, dialyzed against 50 mM Tris pH 7.5)
binding result: binds
